Test results from patent publication US20210062213A1 (UT BATTELLE, published 2021).

T1: cCFP-DGCR14/ESS2 (human DGCR14/ESS2 fused with the C-terminal fragment of CFP) (Homo sapiens, UniProt Q96DF8 1-476)
T1 construct: BiFC fusion transiently expressed in Arabidopsis leaf mesophyll protoplasts; also called Has DGCR14/ESS2; NM_022719; not shown: C-terminal fragment of CFP (cCFP) from vector pSATI-cCFP-C
T1 sequence: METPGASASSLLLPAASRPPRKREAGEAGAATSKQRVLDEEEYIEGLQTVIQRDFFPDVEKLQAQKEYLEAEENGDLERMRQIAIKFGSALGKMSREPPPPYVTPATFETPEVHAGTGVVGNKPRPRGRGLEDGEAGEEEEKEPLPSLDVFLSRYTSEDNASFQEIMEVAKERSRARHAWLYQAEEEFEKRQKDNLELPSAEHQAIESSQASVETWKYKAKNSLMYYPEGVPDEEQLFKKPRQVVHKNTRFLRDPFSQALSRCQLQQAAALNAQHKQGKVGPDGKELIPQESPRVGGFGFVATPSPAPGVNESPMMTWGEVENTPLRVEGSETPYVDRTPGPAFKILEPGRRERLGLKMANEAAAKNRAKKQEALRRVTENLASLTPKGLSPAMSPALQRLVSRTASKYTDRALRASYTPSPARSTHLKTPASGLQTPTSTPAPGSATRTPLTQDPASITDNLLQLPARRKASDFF

B1: nVenus-U2B (U2 SMALL NUCLEAR RIBONUCLEOPROTEIN B fused with the N-terminal fragment of Venus) (other, Arabidopsis, UniProt O22922 1-232, looked up)
chain: MLTADIPPNQSIYIQNLNERIKKEELKRSLYCLFSQFGRILDVVALKTPKLRGQAWVTFSEVTAAGHAVRQMQNFPFYDKPMRLQYAKAKSDCLAKAEGTFVPKDKKRKQEEKVERKREDSQRPNTANGPSANGPSANNGVPAPSFQPSGQETMPPNNILFIQNLPHETTSMMLQLLFEQYPGFKEIRMIDAKPGIAFVEYEDDVQASIAMQPLQGFKITPQNPMVISFAKK
notes: BiFC fusion transiently expressed in Arabidopsis protoplasts; also called AT2G30260; not shown: N-terminal fragment of Venus (nVenus) from vector pSATI-nVenus-C
B2: nVenus-U1-70 k (U1 SMALL NUCLEAR RIBONUCLEOPROTEIN-70K fused with the N-terminal fragment of Venus) (other, Arabidopsis, UniProt Q42404 1-427, looked up)
chain: MGDSGDPFLRNPNAAVQARAKVQNRANVLQLKLMGQSHPTGLTNNLLKLFEPRPPLEYKPPPEKRKCPPYTGMAQFVSNFAEPGDPEYAPPKPEVELPSQKRERIHKLRLEKGVEKAAEDLKKYDPNNDPNATGDPYKTLFVSRLNYESSESKIKREFESYGPIKRVHLVTDQLTNKPKGYAFIEYMHTRDMKAAYKQADGQKIDGRRVLVDVERGRTVPNWRPRRLGGGLGTSRVGGGEEIVGEQQPQGRTSQSEEPSRPREEREKSREKGKERERSRELSHEQPRERSRDRPREDKHHRDRDQGGRDRDRDSRRDRDRTRDRGDRDRRDRDRGRDRTSRDHDRDRSRKKERDYEGGEYEHEGGGRSRERDAEYRGEPEETRGYYEDDQGDTDRYSHRYDKMEEDDFRYEREYKRSKRSESREYVR
notes: BiFC fusion transiently expressed in Arabidopsis protoplasts; also called AT3G50670; not shown: N-terminal fragment of Venus (nVenus) from vector pSATI-nVenus-C

Key:
Test in all cases: bimolecular fluorescence complementation (BiFC) in Arabidopsis protoplasts
[1] = biological target: T1, cCFP-DGCR14/ESS2 (human DGCR14/ESS2 …)
Experimental: (§1) Protoplast isolation and transfection were performed as previously described (Xie et al. (The Plant Cell 30, 1645-1660 (2018)). For subcellular localization, 8 μg of DGCR14l-YFP and DGCR14/ESS2-YFP constructs were co-transfected with 2 μg of the nuclear marker construct (mCherry-)VirD2NLS), respectively, into 100 μl of protoplasts (˜2×10⁴ cells) to determine their subcellular localizations. For colocalization, paired constructs (5 μg each) were co-transfected into 100 μl of protoplasts. For BiFC, paired genes were cloned into pSATI-nVenus-C (fuse with nVenus) and pSATI-cCFP-C (fuse with cCFP), respectively. Then their expression cassettes were cloned into pUC119 (pUC-RCS) vector using AscI for transient expression in protoplasts. The generated constructs (4 μl of nVenus construct and 4 μl of cCFP construct) were co-transfected with 2 μl of the nuclear marker construct (mCherry-VirD2NLS) into 100 μl of protoplasts. After 14 h incubation under weak light at room temperature, protoplasts were collected and resuspended in cold W5 solution (2 mM MES pH 5.7, 154 mM NaCl, 125 mM CaCl₂, and 5 mM KCl) to subject to microscopy. Images were collected using a Zeiss LSM 710 confocal microscope, equipped with 514 and 561 nm laser lines for excitation of YFP and mCherry, respectively. Images were processed using Zen software (Zeiss).
(§2) To further test the association of DGCR14l and DGCR14/ESS2 with spliceosome, a bimolecular fluorescence complementation (BiFC) assay was performed in Arabidopsis protoplasts. In this assay, DGCR14 orthologs and U1-70 k were fused with split YFP (C-terminal fragment of CFP (cCFP) and N-terminal of Venus (nVenus)), and co-expressed in protoplasts. The interaction between two proteins will bring cCFP and nVenus together to form a functional YFP, which then leads to fluorescence. […] In contrast, no YFP signal was detected from DGCR14l-U2B or DGCR14/ESS2-U2B interaction (FIG. 2C), further supporting DGCR14's selectivity on spliceosome components.

[2] = biological target: B2
Experimental: as §1, §2

[3] = biological target: B1
Experimental: as §1, §2

Binder | binding result [1] | binding result [2] | binding result [3]
B1 | no binding | – | –
B2 | binds | – | –
cCFP-DGCR14l (Arabidopsis thaliana DGCR14-like fused with the C-terminal fragment of CFP) (other, BiFC fusion transiently expressed in Arabidopsis leaf mesophyll protoplasts; also called Ath DGCR14l; Arabidopsis DGCR14; not shown: C-terminal fragment of CFP (cCFP) from vector pSATI-cCFP-C) MFLSPGHSPRQISSPSPSSYSDDTLRSTPRSSSSEIIPRNPRKRMRVLDEDAYVEAIEKIIERDYFPDITKLRDRLDWIQAVKTRDPIQIRDAQLKIIERRGKKANHHVGDTEGKTQTPGSTFLRNFTPLDEFDGKTPRTPGVSGREFHGVEVDAGDGDEDIDLNLSLDEFFRRYTSEDNESFSKILEKVNRKKKEKYGFLLEGEKEDGKSIEDVKRDRITDGYGTSDQPPSTLEGWKYTAKNLLMYHPADRGEAPLTEAERAVRLLGLTKEIVKGNTRFHGKTMDSRPREDGSVEILYTPIAGSSPMHISGRDRDKSKRYDLDDLRKTPNPFYVESDKRADNGYSFVRTPSPAPGLDESPFITWGEIDGTPMRLDLEDTPIDIGGSADGPHYNIPSAPPRDVRAHSLSRDASRKLRERSNSMFKKPPLPSPHRSGSASPNVRTLSPAAQKFFRKAIAKSSSTVDESLRASYRGASPRGASPGAVTPKSVRSISRFGKDGTSSETRSP | – | binds | no binding
